For 2 substances, EC50 of luciferase activity of Jurkat/FcγRIIIa/NFAT-Luc cells co-cultured with Daudi cells and serially diluted mAb and EC50 of luciferase activity of Jurkat/FcγRIIa/NFAT-Luc cells co-cultured with Daudi cells and serially diluted mAb results are on record in article PMC3994145.

For assay [1], the target named is human FcγRIIIa/158V on Jurkat cells (human).
The target in assay [2] is human FcγRIIa/131H on Jurkat cells (human) (UniProt P12318).
Sequence of UniProt P12318 (P12318 34-317): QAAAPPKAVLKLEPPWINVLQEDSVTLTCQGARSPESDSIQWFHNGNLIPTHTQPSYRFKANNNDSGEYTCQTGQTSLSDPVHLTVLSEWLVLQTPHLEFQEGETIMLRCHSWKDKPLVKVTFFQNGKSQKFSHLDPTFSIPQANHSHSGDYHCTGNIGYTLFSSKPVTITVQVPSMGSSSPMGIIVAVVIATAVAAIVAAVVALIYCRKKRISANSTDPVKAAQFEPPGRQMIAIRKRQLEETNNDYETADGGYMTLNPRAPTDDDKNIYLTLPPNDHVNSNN

Sequence of human FcγRIIIa/158V on Jurkat cells (human) (P08637 17-208): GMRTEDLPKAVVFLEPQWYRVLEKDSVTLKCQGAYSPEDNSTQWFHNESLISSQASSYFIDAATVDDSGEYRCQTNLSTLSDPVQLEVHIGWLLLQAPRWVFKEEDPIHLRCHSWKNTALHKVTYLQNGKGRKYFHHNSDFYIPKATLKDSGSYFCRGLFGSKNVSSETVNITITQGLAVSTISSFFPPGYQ

“rituximab (wild-type, anti-CD20 mAb, IgG1) (antibody)”: the EC50 of luciferase activity of Jurkat/FcγRIIIa/NFAT-Luc cells co-cultured with Daudi cells and serially diluted mAb in assay [1] stood at 0.034 µg/mL. Turning to “rituximab G236A/S239D/I332E variant (antibody)”, the EC50 of luciferase activity of Jurkat/FcγRIIIa/NFAT-Luc cells co-cultured with Daudi cells and serially diluted mAb in assay [1] is 0.016 µg/mL. In assay [2], this substance gave an EC50 of luciferase activity of Jurkat/FcγRIIa/NFAT-Luc cells co-cultured with Daudi cells and serially diluted mAb of 0.057 µg/mL.
